Source: patent US20160369006A1 (published 2016)

Target: WT1 peptide … presented by HLA-A0201 (human;)
Test: 125I-labeled antibody saturation cell binding; JMN cells

Kd: 200 pM
B1: ESK1 wildtype IgG1 (antibody, V domains shown)
VH: QMQLVQSGAEVKEPGESLRISCKGSGYSFTNFWISWVRQMPGKGLEWMGRVDPGYSYSTYSPSFQGHVTISADKSTSTAYLQWNSLKASDTAMYYCARVQYSGYYDWFDPWGQGTLVTVSS
VL: not shown
